Reference: patent US20250057930A1, “ANAPLASTIC LYMPHOMA KINASE (ALK) CANCER VACCINES AND METHODS OF USE THEREOF” (The Children's Medical Center Corporation, priority 2022, published 2025)

System: H2-Dd expression
Experiment: H2-Dd surface expression on MHC-I^low lung tumor escaper cell lines (flow cytometry)
Format: cell-based, mouse
Conditions: tumor cells stimulated in vitro with IFN-γ
Description: To uncover the mechanisms that would explain this resistance to treatment, ex vivo escaped tumors were isolated from each treatment group. […] To understand whether the observed H2-Dd downregulation was sufficient to impair tumor rejection, tumor cells with high H2-Dd isolated from untreated mice or tumor cells with low H2-Dd isolated from ALK vaccinated mice and treated with ICI were injected. Treatment with ICI induced rejection of tumors with high H2-Dd expression (FIGS. 6D-6E), consistent with previous experiments (FIG. 3E), but not of escaped tumors with low H2-Dd expression (FIGS. 6F-6G). Finally, it was asked whether H2-Dd expression could be restored by Stimulator of IFN genes (STING) signaling that can increase MHC-I expression in other models of lung cancer.
Allophycocyanin (APC)-conjugates H-2D^d-[…] (SEQ ID NO: 22) Dextramer reagents were obtained from Immudex (Immudex, Denmark). […] After washing step, cells were ready to be acquired. When referred, also PD-1 (clone RMP1-30; BV421-PD-1, BD Pharmingen™, USA) expression was evaluated together with dextramer staining, being added together with FITC-CD8. H2-Dd MHC-I expression was measured on relapsed tumors after treatment. […] All cells were acquired in a BD Celesta flow cytometer (BD Bioscience, USA) and analyzed by using the FlowJo software (FlowJo LCC, USA). […]

B1: IFN-γ: Recombinant murine IFN-γ (R&D Systems) (protein, UniProt P01580 23-155, looked up)
Interferon gamma: HGTVIESLESLNNYFNSSGIDVEEKSLFLDIWRNWQKDGDMKILQSQIISFYLRLFEVLKDNQAISNNISVIESHLITTFFSNSKAKKDAFMSIAKFEVNNPQVQRQAFNELIRVVHQLLPESSLRKRKRSRC
H2-Dd expression: H2-Dd expression was restored
